We go through four molecules from patent US20200087373A1 (UNIVERSITY OF COPENHAGEN, published 2020).

For test [1], the target named is human GIP receptor (human) (UniProt P48546). The test is described as follows: 125I-hGIP competition binding, COS-7 cells expressing hGIPR.
The target is the same in test [2]. The test is described as follows: ratio of IC50 with 2% HSA to IC50 with 0.1% casein, 125I-hGIP competition binding on hGIPR COS-7 cells.
For test [3] the target is unchanged. In words: cell-based or functional assay.
For test [4] the target is unchanged. The test is described as follows: 125I-hGIP(1-42) competition binding, COS-7 cells expressing human GIPR.
The target is the same in test [5]. The test is described as follows: 125I-hGIP competition binding on hGIPR COS-7 cells; fold in affinity, paired, reference taken as GIP(3-30)NH2.
Test [6] shares this target. In words: 125I-hGIP(1-42) competition binding, COS-7 cells expressing human GIPR, 0.1% casein (no HSA).
For test [7] the target is unchanged. The test is described as follows: 125I-hGIP(1-42) competition binding, COS-7 cells expressing human GIPR, 2% HSA.
A further test deals with T1, human GIP receptor (human, UniProt P48546 22-466).
T1 sequence (looked up): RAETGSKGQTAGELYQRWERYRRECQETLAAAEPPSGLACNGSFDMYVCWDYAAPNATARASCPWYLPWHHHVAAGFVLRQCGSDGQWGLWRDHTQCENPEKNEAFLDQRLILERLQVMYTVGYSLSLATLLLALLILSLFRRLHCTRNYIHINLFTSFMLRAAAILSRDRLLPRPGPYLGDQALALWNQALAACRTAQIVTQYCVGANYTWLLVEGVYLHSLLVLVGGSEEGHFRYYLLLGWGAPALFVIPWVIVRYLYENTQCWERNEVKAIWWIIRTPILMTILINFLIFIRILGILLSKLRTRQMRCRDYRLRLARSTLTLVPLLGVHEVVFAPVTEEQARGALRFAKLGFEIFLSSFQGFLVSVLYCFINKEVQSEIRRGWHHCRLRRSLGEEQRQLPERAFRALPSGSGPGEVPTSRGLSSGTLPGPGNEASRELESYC
In words: cell-based or functional assay.

The IC50 is the point on the concentration scale where inhibition reaches its midpoint. A lower IC50 goes with greater potency.

Ends that are not written are not given here. * marks the point of attachment. Stearoyl = CCCCCCCCCCCCCCCCCC(=O)*

AT129 [hGIP(5-30)NH2-C18/30] (peptide): in test [1], the log IC50 was -3.9 log M.
As for “AT162 (H18K; K30R, C18 at position 16, as printed in Table 3b) (peptide)”, the Fold change (IC50 2% HSA / IC50 0.1% casein) in test [2] is 5.6 fold. Besides, the cAMP - antagonisme IC50 in test [3] was 26.3 nM. For the same molecule, the cAMP - antagonisme fold (paired) in test [3] amounted to 0.5 fold. Also, the IC50 in test [4] is 59.8 nM; in test [6] it was 59.8 nM; in test [7], 336 nM. This molecule also returned a fold (paired) in test [5] of 2.6 fold.
Regarding AT114 [hGIP(3-30)NH2-C18/16] (peptide), the Fold change (IC50 2% HSA / IC50 0.1% casein) in test [2] is 7.7 fold. This molecule showed a cAMP - antagonisme IC50 in test [3] of 29.2 nM. In test [3], the cAMP - antagonisme fold (paired) is 2.3 fold. The IC50 in test [4] stood at 102 nM; in test [6] it was 115 nM; in test [7] it was 881 nM. In test [5], this molecule showed a fold (paired) of 6.7 fold.
With EGTFISDYSIAMDK(Stearoyl)IRQQDFVNWLLAQR-NH2 (not fully specified) [AT162 [hGIP(3-30)NH2[H18R; K30R]-C18/16]], in the test with human GIP receptor, the “cAMP agonism, EC50 (log)” value was -5.9 log M; the “cAMP agonism, Emax” value was 44%; the “cAMP agonism, nM (EC50)” value was determined as 1370 nM. For the same molecule, the concentration for half-maximal inhibition (IC50) in test [1] turned out to be 85 nM.
